Experimental data from publication PMC6930178.

Molecular target: HIV-1 clade C 96ZM651 gp140 Env trimer (HIV-1 clade C isolate 96ZM651)
Experiment: native gel or EMSA

With “HIV-1 clade C 96ZM651 gp140 Env trimer (domain or fragment)” as the substance, how does the stoichiometry N read?
Its stoichiometry N is 3.
